Target: cerFP505 (ceriantharian fluorescent protein with an emission maximum at 505 nm) (deep sea ceriantharian (taxon Spirularia, species not determined))
Assay: SEC; elution profile of purified recombinant cerFP505; conditions as described in refs 43, 44

stoichiometry N: 4
Substance: cerFP505 (ceriantharian fluorescent protein with an emission maximum at 505 nm) (natural protein)
